The results in this text go back to paper PMC6018426, “Crystal structure of the catalytic domain of HIV-1 restriction factor APOBEC3G in complex with ssDNA”.

The target of data set [1] is CTD2* (A3G-CTD2 E259A), His-tagged (Homo sapiens, UniProt Q9HC16 191-384, P200A;L234K;N236A;C243A;P247K;E259A;F310K;Q318K;C321A;Q322A;C356A). Nature of the data set: MST; Zn2+ (20 uM ZnCl2); 20 mM Bis-Tris pH 6.5, 100 mM NaCl, 1 mM DTT, 0.002% Tween 20; ZnCl2 20 uM (MST) or 10 uM (EMSA); MST incubated at 4 C, measured at room temperature; EMSA incubated 1 h at room temperature, gel at 4 C. The note with it: protein: recombinant; tags: poly-His (pET-28a), RED-tris-NTA dye.
CTD2* (A3G-CTD2 E259A), His-tagged, sequence (Q9HC16 191-384 P200A/L234K/N236A/C243A/P247K/E259A/F310K/Q318K/C321A/Q322A/C356A): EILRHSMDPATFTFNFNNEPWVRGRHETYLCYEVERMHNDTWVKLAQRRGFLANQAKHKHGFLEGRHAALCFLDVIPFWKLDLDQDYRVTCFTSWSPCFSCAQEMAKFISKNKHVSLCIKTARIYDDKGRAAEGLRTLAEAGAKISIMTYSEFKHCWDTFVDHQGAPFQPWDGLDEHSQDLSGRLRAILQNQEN

The target in data set [2] is CTD2* (A3G-CTD2 E259A), GST-purified (Homo sapiens, UniProt Q9HC16 191-384, P200A;L234K;N236A;C243A;P247K;E259A;F310K;Q318K;C321A;Q322A;C356A). Nature of the data set: competition; EMSA; unlabeled competitor 25-2500 nM against N2; band not affected; 20 mM Bis-Tris pH 6.5, 100 mM NaCl, 1 mM DTT, 0.002% Tween 20; ZnCl2 20 uM (MST) or 10 uM (EMSA); MST incubated at 4 C, measured at room temperature; EMSA incubated 1 h at room temperature, gel at 4 C. The settings on record: protein: recombinant; tags: GST removed by PreScission protease (pGEX6P-1). (In EMSA bound probe runs differently from free probe, usually more slowly.)
CTD2* (A3G-CTD2 E259A), GST-purified, sequence (Q9HC16 191-384 P200A/L234K/N236A/C243A/P247K/E259A/F310K/Q318K/C321A/Q322A/C356A): as above

The term Kd denotes a measure of binding affinity in units of concentration. As to AATCCCAAA (ssDNA) [9nt substrate ssDNA], in data set [1], the Kd was 55 ± 12 µM.

Take AAUCCCAAA (ssRNA) [9nt RNA]: in data set [1], the Kd came to 1500 ± 500 µM. In the case of AAAAAAAAA (ssDNA) [9nt polyA], in data set [2], the binding result was “no binding”.
